Source: PMC11845725

What was measured:
[1] = molecular target: TGM6 domain 3 (TGM6-D3) (H. polygyrus); assay: ITC; competition: 150 μM TGFBR2 in the syringe into 15 μM TGM6-D3 in the cell with 0.0 or 6.0 μM TGM1-D3; 25 °C; ITC buffer pH 7.4; global fit to a simple competitive binding model; constants are for binding in the absence of competitor
[2] = molecular target: TGM1-D3 K241Q S242R G243R T244G (QRRG) (H. polygyrus); assay: ITC; binder in the syringe, target in the sample cell, concentrations as in the tables; 35 °C; 25 mM HEPES, 150 mM NaCl, 0.05% NaN3, pH 7.4; fit to a simple 1:1 binding model
[3] = molecular target: TGM6-D3 R82A (H. polygyrus); assay: as above
[4] = molecular target: TGM1-D3 K254P N255R (PR) (H. polygyrus); assay: as above
[5] = molecular target: TGM6-D3 R82S (H. polygyrus); assay: as above
[6] = molecular target: TGM1 domain 3 (TGM1-D3) (H. polygyrus); assay: as above
[7] = molecular target: TGM6-D3 Q81K R82S R83G G84T (KSGT) (H. polygyrus); assay: as above
[8] = molecular target: TGM1-D3 S242R (H. polygyrus); assay: as above
[9] = molecular target: TGM6 domain 3 (TGM6-D3) (H. polygyrus); assay: as above
[10] = molecular target: TGM6-D3 R38A (H. polygyrus); assay: ITC; binder in the syringe, target in the sample cell, concentrations as in the tables; 25 °C; 25 mM HEPES, 150 mM NaCl, 0.05% NaN3, pH 7.4; fit to a simple 1:1 binding model
[11] = molecular target: TGM6-D3 Y80F (H. polygyrus); assay: as above
[12] = molecular target: TGM6-D3 Y93A (H. polygyrus); assay: as above
[13] = molecular target: TGM6-D3 R95A (H. polygyrus); assay: as above
[14] = molecular target: TGM6-D3 P94K R95N (KN) (H. polygyrus); assay: as above
[15] = molecular target: TGM6 domain 3 (TGM6-D3) (H. polygyrus); assay: as above
[16] = molecular target: TGM6-D3 Y80A (H. polygyrus); assay: as above
[17] = molecular target: H. polygyrus TGF-β Mimic 6 (TGM6) (H. polygyrus); assay: as above
[18] = molecular target: TGM6-D3 I78A (H. polygyrus); assay: as above
[19] = molecular target: TGFBR2 extracellular domain (TGF-β type II receptor) (UniProt P37173); assay: ITC; TGM6-D3, TGM1-D3 and TGFBR2 variants, simple binding model, 1–2 replicates per variant; syringe and cell proteins in Supplementary Table 6; 25 mM HEPES, 150 mM NaCl, 0.05% NaN3, pH 7.4
[20] = molecular target: TGFBR2 extracellular domain (TGF-β type II receptor) (UniProt P37173)
TGFBR2 D55A (human) = assay: ITC; binder in the syringe, target in the sample cell, concentrations as in the tables; 35 °C; 25 mM HEPES, 150 mM NaCl, 0.05% NaN3, pH 7.4; fit to a simple 1:1 binding model
TGFBR2 E142A (human) = assay: as above
TGFBR2 D141A (human) = assay: ITC; binder in the syringe, target in the sample cell, concentrations as in the tables; 25 °C; 25 mM HEPES, 150 mM NaCl, 0.05% NaN3, pH 7.4; fit to a simple 1:1 binding model
TGFBR2 I76A (human) = assay: as above
[21] = molecular target: TGF-β type II receptor extracellular domain (TGFBR2) (human); assay: as above
[22] = molecular target: TGM1 domains 4 and 5 (TGM1-D45) (H. polygyrus); assay: ITC; binder in the syringe, target in the sample cell, concentrations as in the tables; 35 °C; 25 mM HEPES, 150 mM NaCl, 0.05% NaN3, pH 7.4; fit to a simple 1:1 binding model

Substance: TGF-β type II receptor extracellular domain (TGFBR2)
- Kd [1]: 189 nM
- Kd [2]: 170 nM
- stoichiometry N [2]: 1.1 sites
- Kd [3]: 4230 nM
- stoichiometry N [3]: 0.93 sites
- Kd [4]: 2620 nM
- stoichiometry N [4]: 0.91 sites
- Kd [5]: 3090 nM
- stoichiometry N [5]: 1.12 sites
- Kd [6]: 1530 nM
- stoichiometry N [6]: 0.72 sites
- Kd [7]: 4490 nM
- stoichiometry N [7]: 0.82 sites
- Kd [8]: 380 nM
- stoichiometry N [8]: 0.7 sites
- Kd [9]: 437 nM
- stoichiometry N [9]: 1.01 sites
- Kd [10]: 8030 nM
- stoichiometry N [10]: 0.85 sites
- Kd [11]: 1250 nM
- stoichiometry N [11]: 0.67 sites
- Kd [12]: 39000 nM
- stoichiometry N [12]: 0.17 sites
- Kd [13]: 3820 nM
- stoichiometry N [13]: 1 sites
- Kd [14]: 270 nM
- stoichiometry N [14]: 0.9 sites
- Kd [15]: 360 nM
- stoichiometry N [15]: 0.87 sites
- Kd [16]: 48400 nM
- stoichiometry N [16]: 0.33 sites
- Kd [17]: 222 nM
- stoichiometry N [17]: 1.16 sites
- Kd [18]: 5560 nM
- stoichiometry N [18]: 0.71 sites

Substance: TGM1-D3 S242R (domain or fragment)
- fold gain of binding affinity against wild type [19]: 4 fold

Substance: TGM6 (TGF-β mimic 6), full-length (natural protein)
- IC50 of inhibition of the TGF-β1- or TGM1-stimulated CAGA luciferase reporter in NIH-3T3 fibroblasts by increasing concentrations of TGM6 [20]: 0.05 nM
- IC50 of inhibition of the TGF-β1- or TGM1-stimulated reporter in MFB-F11 fibroblasts by increasing concentrations of TGM6 [20]: 0.2 nM

Substance: TGM6 domain 3 (TGM6-D3) (domain or fragment)
- Kd (TGFBR2 D55A (human)): 2250 nM
- stoichiometry N (TGFBR2 D55A (human)): 0.52 sites
- Kd (TGFBR2 E142A (human)): 3170 nM
- stoichiometry N (TGFBR2 E142A (human)): 0.56 sites
- Kd (TGFBR2 D141A (human)): 940 nM
- stoichiometry N (TGFBR2 D141A (human)): 0.75 sites
- Kd (TGFBR2 I76A (human)): 7350 nM
- stoichiometry N (TGFBR2 I76A (human)): 0.69 sites
- Kd [21]: 350 nM
- stoichiometry N [21]: 0.68 sites

Substance: TGM6-D3 I78A (domain or fragment)
- fold decrease in binding affinity against wild type [19]: 15.4 fold

Substance: TGM6-D3 R38A (domain or fragment)
- fold decrease in binding affinity against wild type [19]: 22 fold

Substance: TGM6-D3 R82A (domain or fragment)
- fold decrease in binding affinity against wild type [19]: 11 to 12 fold

Substance: TGM6-D3 R82S (domain or fragment)
- fold loss of binding affinity against wild type [19]: 8.6 fold

Substance: TGM6-D3 R95A (domain or fragment)
- fold decrease in binding affinity against wild type [19]: 11.6 fold

Substance: TGM6-D3 Y80A (domain or fragment)
- fold decrease in binding affinity against wild type [19]: 134 fold

Substance: TGM6-D3 Y80F (domain or fragment)
- fold decrease in binding affinity against wild type [19]: 3.5 fold

Substance: TGM6-D3 Y93A (domain or fragment)
- fold decrease in binding affinity against wild type [19]: 108 fold

Substance: mouse CD44 (mCD44) (receptor)
- Kd [22]: 126 nM
- stoichiometry N [22]: 0.82 sites
